Measurements from the DeepSol protein solubility set.

Assay: soluble on expression in E. coli; label from the status in PepcDB or PDB records

Soluble on expression in E. coli, soluble:
VGYGDITQVETSGASSKTSRQDKLEYDGVRASHTMAQTDAGRMEKYKSFINNVAKKHVVDPAVIAAIISRESRAGNVIFNTTPPGWGDNYNGFGLMQVDKRYHEPRGAWNSEEHIDQATGILVNFIQLIQKKFPSWSTEQQLKGAIAAYNTGDGRVESYESVDSRTTGKDYSNDVVARAQWYKKNGF
MSLTLTLTGTGGAQGVPAWGCECAACARARRSPQYRRQPCSGVVKFNDAITLIDAGLHDLADRWSPGSFQQFLLTHYHMDHVQGLFPLRWGVGDPIPVYGPPDEQGCDDLFKHPGLLDFSHTVEPFVVFDLQGLQVTPLPLNHSKLTFGYLLETAHSRVAWLSDTAGLPEKTLKFLRNNQPQVMVMDCSHPPRADAPRNHCDLNTVLALNQVIRSPRVILTHISHQFDAWLMENALPSGFEVGFDGMEIGVALEHHHHHH
MSLKAINFINWKYIGLTGCLVASLLTACGDDETGPEVVTPLEPKLEIVNEASTFSFSSAGNSAQVLTFNANQDWHIVLDDSEGVDNSWVVLFEREGTAGEGNKVWVAAAENVEPDARRANFSLVSGGFKYDFVIYQAQKDAVVITDPKAYENLDAGEHIISVEFGINTGEYKTSFLYSGDTGWIMPTDERPAGEPETRAMENHTLYFKVLPNQKFDIRRGTIEISSKDNDNVKATMNIFQTGLPKPVITVDNKEMFTNLASKEDSILLKYKATNTNGPRDLTIDIDKNDQDWISFKPAIDAKGDSTFLVSVKENTGGERTATIALCAAADKKVREEFIVTQAQASDVELVITNKNDFRTSLDKLGSAATVKYSVQSTLTDPKNEILVDIVYPEESGYTAENGWLHMANNSMPERVIFTYDVNKVLRERQATVYIYRKGYENKKDYMVIRQAAATQIEIPAPGGLTNVLQSLIDDEIYKDWESITSLELKGRLNDTDLNLLKNMMTAGKGYNLKTLDMTEVENETLKNGVFNGCNLLENISFPTGLQYVPREACRNCTKLRTVVVNEGPTYIGRHAFGNSVVNEAWFPSTMTYVYGYIFDNVTALKTLHLKSLPFQCKEVARSDADEGATQPTTWCTVFKTWPSTVYVPMEYLEYYKNPDPKHVVSMHFQDLLNTLTSESEEWTKGPKVQQPYLKSNSALKSNFTWGSSATTIMGESEGHHHHHH
MSQSKGKKRNPGLKIPKEAFEQPQTSSTPPRDLDSKACISIGNQNFEVKADDLEPIMELGRGAYGVVEKMRHVPSGQIMAVKRIRATVNSQEQKRLLMDLDISMRTVDCPFTVTFYGALFREGDVWICMELMDTSLDKFYKQVIDKGQTIPEDILGKIAVSIVKALEHLHSKLSVIHRDVKPSNVLINALGQVKMCDFGISGYLVDSVAKTIDAGCKPYMAPERINPELNQKGYSVKSDIWSLGITMIELAILRFPYDSWGTPFQQLKQVVEEPSPQLPADKFSAEFVDFTSQCLKKNSKERPTYPELMQHPFFTLHESKGTDVASFVKLILGDLEHHHHHH
MSLRLTKGSVKHQAKTEAELKTVKTQLDTQKAQIEKHFAESAELFKTLINDYQKLYRHYATSSNNLLGEKDQKGLFTQQLITATDKSQNEQPRDYSEGASGLFKENKEEEGHHHHHH
MSLAEKIKVLIVDDQVTSRLLLGDALQQLGFKQITAAGDGEQGMKIMAQNPHHLVISDFNMPKMDGLGLLQAVRANPATKKAAFIILTAQGDRALVQKAAALGANNVLAKPFTIEKMKAAIEAVFGALK
GTTVHCDYLNRPHKSIHRRRTDPMVTLSSILESIINDMRDLPNTYPFHTPVNAKVVKDYYKIITRPMDLQTLRENVRKRLYPSREEFREHLELIVKNSATYNGPKHSLTQISQSMLDLCDEKLKEKEDKLARLEKAINPLLDDDDQVAFSFILDNIVTQKMMAVPDSWPFHHPVNKKFVPDYYKVIVNPMDLETIRKNISKHKYQSRESFLDDVNLILANSVKYNGPESQYTKTAQEIVNVCYQTLTEYDEHLTQLEKDICTAKEAALEEAELESLDPMT

Soluble on expression in E. coli, not soluble:
MSLDPDAGVIFARTAAGAAVALGLLKCGRIWLCPVCSGQDPARPSEEITEAVVSWLQQGGWAYLVTFTARHTAADRLSDLMDALQGTRADAETGTKRRPGAYQRLITGAAWAGDKRRKSNQEGIRGRIGYIGMIRATEVTVGEGAGWHPHIHAIVLVGGRTEGQRGDKRITGTFTPSEDALTEWEDRWRRSGPATLARSTPGFRPPTGARSPGATAGARATASTSSSSVRSGRQRPGRVHRQDAGRQEPGPGAGTRRPQGRPPGQHDVLRTPSRIGDLMGGVPEEEAAGHGSLAWGLDRWAEYETAVSGAGHRVDPLPAPAPGPDRRRHRGRRHGRPVPDRAARRFRDGVQIWDRAWKGLVGRSLDLAVVEAVEGREISMDALGELVQSAGQSRAFLRVLTPQEVTELYDELLRTLARRREQAAERRAAEAAEAEPTTREGHHHHHH
MGSDKIHHHHHHMSIEQLADLTQPQRDRLAFVELRVRFIGEIRRQDLVSRFGIQSAAASRDLALYKELVPGNIDYDSKGKSYVLGPDFRPLFEFPPERVLSWLTQGFGDGEPMQLKAWVASESPSRLARPDLTVLASVTRAIHQGCPLAVEYHSISSGKANRQIVPFALIDDGQRWLVRAFDRESQQFRDFVITRIRNPQVLKGENPAPHEASDQDIQWTRILELDLVPHPNRPHPEISEMDYSMERGVWKMKLRAAMAGYILCKLRVDCSPTHKLNGSEHRLWLRNHLALYGVRSAVLAPGYESPEPVGQEQDGD
MGSDKIHHHHHHMSDEKKSTDIDLKNLKAGGFIKERGKDLFTVRLRVPGGRMPVARLKKIAEVAEKYGQGMVHLSVRQSVELININFRDFDAVVAELGEGTQKVASCGARVRVPTACGGCEYNPNGLVDTQKSALEVDEKLFGTSTGHHKFKVGFAGCPFDCPKSATNDVGFQGAIWPVLYADECIGCGLCDKSCTEDAIVMGDDGKPRFIPENCLYCGDCLKVCPSEAWRAEKKGYTVRIGGKWGRRPLVGTLFAEFLPEEQVFDFIAAVLDWYKEKAEGQGRIRLGDVIRAEGPDALLGYLRERFPAAVVDATIPPQRIATQIGKEKRVP
MAHSGDNHSSEFCMLRSLSASIGADPLLVQGAGGNTSIKQAGVLWIKASGTWLKNARDDEIMVPVALAPLLDAVSHRSPAAEAAGQFTLADLNPRQLRPSIETTVHALLPQKIVVHVHCVETISIAVQANAEALLEGRLRGLDWAFVPYRRPGLPLAQAIAERLKPATNVLVLGNHGLVVAADTVAEAALLLQRVTGLLARQPRPAPPPDLDALLRLAAGSDYRLPASTAAHAVATDLASCRIAASGSLYPDHVIFLGVGSVIAGPGENAAAVVARTAAAPTSILFPGKGVLMRREANAGAEAMARCLADVVARVDGAARVNYLSPKENAELLNWDAEKYRQQLNREGATLQLEHHHHHH
MGSDKIHHHHHHVAISIAGGVRPGKVIEIERRLYKQLIVGKHKANAMPDELSAELEESANKLDIERKALKMRLEKQAKEKSVYVEVSALLTHTVNNAIEHQLAHPQMILEASAISENQILLLDLLLHPDLNINRLRPIIESINWLSRDLINLINSPASRHRRPKHGDVQVTDIKLVLNYIGIEHLRLLIPYFCLRNWLPSGNANLLWITRKLWRYSMVSAIAAQTLAELHNEEPGLAYSCALMYQFSTSIILSQSGRIFDNTWGTWLREASHSREKQVYDAIMATDFPAEEVLGQVLLHSHRLNWQLLSLLKFDDSPITQVLKELDHDYHFTELSADAAIVAKASCYAKVLLLEEQQQIDPQEKRIMFDYYQFSAQELIRLKGQNFRKLDLL
METYDLVIIGGGINGAGIARDAAGRGLSVLLCEKDDLASHTSSASTKLIHGGLRYLEYYEFGLVRKALQEREVLLKAAPHIIWPLRFVMPHARDQRPEWMIRAGLFLYDHLAKREVLPGSETVSFARHPSGAPLKDAFKRGFVYSDGWVQDARLVVLNAMDAAEHGAKIHVRTACVAARRDGEHWLATLEREDGSRFEVRARALVNAAGPWVQSLIEDKLAMPSSKSIRLVKGSHIVVKKIFDHPFAYIFQNPDKRIIFAIPYEKDFTLIGTTDVEYHGDPAQVAIDGDEINYLCEMSNRYFHSQITPADVLSTYSGVRPLLDDASDNASSVTRDYALEMDLKGAPLLSVFGGKITTFRKLAEEAVDKIAPLLGCGQATWTAGAPLPGGDMPGADFGRFLQGLRQRHPWLPEALAERWARAYGTRVGKLIGKADSLAGLGKEVLPGLYEAELAYLADAEWATRSEDILWRRSKLKLHLPANAAEVVDAWLAARAQPPREALSALEHHHHHH
MGSDKIHHHHHHMAKADLDKDPFDVASMFDDVGKNYDLTNTVLSFGQDRVWRKRTRQRLDLKPGEKVLDLAAGTAVSTVELAKSGAFCVACDFSQGMLAAGKDRDVSKVVGDGMQLPFADNSFDAVTISYGLRNIHDFRAGLKEMARVTKPGGRLTVAEFSTPVIPVFGTVYKEYLMRLLPQAARAVSSNPEAYIYLADSIRAWPSQAELAREINQNGWSDCGWQNLTFGIVALHSAIKPEN
FNGHSLKAYPRMTFQLTIKGGNEMNYRIEEKEAFRIVGIKKRVPIIFKGINPEIASMWESLDEKAINKLKELSNVAPSGLISASTNFSEGRTEENGELDHYIGAATTKRCPDNFSRLEVPASTWAVFESIGPFPDTLQEVWGRIYSEWFPSSNYEQIEGPEILWNEHKDVTSPSFKSEIWIPITKK
MARPLVPSSQKALLLELKGLQEEPVEGFRVTLVDEGDLYNWEVAIFGPPNTYYEGGYFKARLKFPIDYPYSPPAFRFLTKMWHPNIYETGDVCISILHPPVDDPQSGELPSERWNPTQNVRTILLSVISLLNEPNTFSPANVDASVMYRKWKESKGKDREYTDIIRKQVLGTKVDAERDGVKVPTTLAEYCVKTKAPAPDEGSDLFYDDYYEDGEVEEEADSCFGDDEDDSGTEESLEHHHHHH
MGSDKIHHHHHHMVARRRLDAELVRRKIARSREHAVEMIRGRRVFVAGMLALKPATVVEPEVSIRVEEDASEDWASRGAHKLLGALESFEPLGLKVKGRRVLDAGASTGGFTDVLLRREASEVVAVDVGYGQLIWRLQNDDRVRVVDRTNIRYMTLEDTGGECDMMVGDLSFISLKLTLPAIAKVLSDGADLLPMVKPQFEVGKDRLGSGGVVRSPELRAEVTADVAKFAATLGLSLKHVVASPLPGPSGNVEYFLWLVKDGGASMPDDQQLSAMIDTAVKEGPQ
MGSDKIHHHHHHMDTQAFKQTLHKSDRYNRRGFGSANKRAQALAEAYQSGLIGSIRENGNLLEHGRLKVKLAEAFGFCWGVERSVAMAYETRKHYPNERIWITNEIIHNPSVNDHLRKMNVLFISEEKGVKDFSVVKDGDVVILPAFGATVQDMKLLHDRGCHIIDTTCPWVSKVWHTVEKHKKHTFTSIIHGKYKHEETLATSSFAGTYLVLFDLEEANYVSDYILGKGNREDFLKRFSKASSAGFDPDKDLQKVGVANQTTMLKSETEEIGRLFEKTMLQRFGPAQLNEHFLAINTICDATEERQGAMFSLVDEPLDLMVVIGGFNSSNTTHLQEIAISRGIRSFHIDTPERIGEETNTITHMPLEGGELLTEENFLQNGNISVGITSGASTPDRVVEDVIHKLMKIGENF
SIVADSECRAELKDYLRFAPGGVGDSGPGEEQRESRARRGPRGPSAFIPVEEVLREGAESLEQHLGLEALMSSGRVDNLAVVMGLHPDYFTSFWRLHYLLLHTDGPLASSWRHYIAIMAAARHQCSYLVGSHMAEFLQTGGDPEWLLGLHRAPEKLRKLSEINKLLAHRPWLITKEHIQALLKTGEHTWSLAELIQALVLLTHCHSLSSFVFGCGILPEGDADGSPAPQAPTPPSEQSSPPSRDPLNNSGGFESARDVEALMERMQQLQESLLRDEGTSQEEMESRFELEKSESLLVTPSADILEPSPHPDMLCFVEDPTFGYEDFTRRGAQAPPTFRAQDYTWEDHGYSLIQRLYPEGGQLLDEKFQAAYSLTYNTIAMHSGVDTSVLRRAIWNYIHCVFGIRYDDYDYGEVNQLLERNLKVYIKTVACYPEKTTRRMYNLFWRHFRHSEKVHVNLLLLEARMQAALLYALRAITRYMT
